Laboratory results published in the Human Domainome abundance scans (Beltran et al. 2025).
± gives the uncertainty stated by the source.

B1: Transcription factor SOX-11, residues 50 to 117; numbered along this chain, P35716 (parent)
chain: KRPMNAFMVWSKIERRKIMEQSPDMHNAEISKRLGKRWKMLKDSEKIPFIREAERLRLKHMADYPDYK

Variants of: B1
Assay: abundance fitness (aPCA) (normalised: wild type 0, dead -1); higher = more abundant; growth selection in yeast, the domain comes from the species named
Details: Homo sapiens
For H26A, the abundance fitness was 0.158 ± 0.062.
In the case of H26V, the abundance fitness is reported as -0.283 ± 0.057.
For H26P, the abundance fitness was 0.205 ± 0.065.
With H26R the abundance fitness was -0.106 ± 0.057.
In the case of A53P, the abundance fitness is reported as -0.478 ± 0.11.
A53Y gave an abundance fitness of -0.813 ± 0.09.
K36F gave an abundance fitness of -0.149 ± 0.058.
With K36H the abundance fitness was -0.036 ± 0.068.
M8Y gave an abundance fitness of -0.089 ± 0.051.
For M8N, the abundance fitness was -0.111 ± 0.054.
R15T gave an abundance fitness of -0.073 ± 0.085.
For R15S, the abundance fitness was -0.154 ± 0.057.
Work on P3Q yielded an abundance fitness of 0.119 ± 0.21.
Work on P3H yielded an abundance fitness of -0.085 ± 0.077.
For P3T, the abundance fitness was -0.083 ± 0.076.
P3M showed an abundance fitness of -0.704 ± 0.45.
For L58P, the abundance fitness was -0.473 ± 0.12.
With L58T the abundance fitness was -0.011 ± 0.071.
Work on L58R yielded an abundance fitness of -0.118 ± 0.069.
For L58N, the abundance fitness was 0.068 ± 0.054.
Work on I47A yielded an abundance fitness of 0.061 ± 0.051.
I47K showed an abundance fitness of -0.198 ± 0.077.
I47F showed an abundance fitness of -0.23 ± 0.045.
Variant R51M has an abundance fitness of 0.141 ± 0.14.
Work on K46H yielded an abundance fitness of -0.718 ± 0.08.
With K46S the abundance fitness was -0.996 ± 0.08.
K46G gave an abundance fitness of -0.671 ± 0.1.
K46V gave an abundance fitness of -0.647 ± 0.084.
K46P showed an abundance fitness of -0.844 ± 0.14.
For A6I, the abundance fitness was -0.934 ± 0.12.
Work on A6G yielded an abundance fitness of -0.03 ± 0.06.
Variant A6F has an abundance fitness of -0.987 ± 0.1.
With A6C the abundance fitness was -0.634 ± 0.082.
In the case of A6T, the abundance fitness is reported as -0.767 ± 0.11.
In the case of L34R, the abundance fitness is reported as -0.763 ± 0.1.
Work on E14V yielded an abundance fitness of -0.895 ± 0.084.
Work on E14D yielded an abundance fitness of -0.861 ± 0.12.
E14K gave an abundance fitness of -0.953 ± 0.41.
Variant E14T has an abundance fitness of -1.16 ± 0.2.
With E14H the abundance fitness was -0.577 ± 0.13.
With S31V the abundance fitness was -0.064 ± 0.051.
For N5F, the abundance fitness was -0.712 ± 0.08.
With N5W the abundance fitness was -0.438 ± 0.13.
R57L gave an abundance fitness of -0.335 ± 0.065.
With R57E the abundance fitness was 0.283 ± 0.13.
Work on R57G yielded an abundance fitness of -0.167 ± 0.059.
In the case of R33C, the abundance fitness is reported as 0.178 ± 0.047.
R33Y gave an abundance fitness of 0.167 ± 0.051.
Work on R33L yielded an abundance fitness of 0.438 ± 0.056.
Variant A28C has an abundance fitness of -0.268 ± 0.055.
With A28Y the abundance fitness was -0.34 ± 0.059.
Work on A28I yielded an abundance fitness of -0.205 ± 0.053.
Work on A28H yielded an abundance fitness of -0.183 ± 0.065.
Work on H60R yielded an abundance fitness of -0.227 ± 0.064.
H60Y gave an abundance fitness of -0.03 ± 0.053.
H60M showed an abundance fitness of -0.114 ± 0.19.
H60G showed an abundance fitness of 0.142 ± 0.055.
With E52P the abundance fitness was -0.982 ± 0.15.
Work on E52K yielded an abundance fitness of -0.577 ± 0.16.
Work on K1W yielded an abundance fitness of 0.006 ± 0.2.
In the case of K1L, the abundance fitness is reported as -0.137 ± 0.11.
For K1C, the abundance fitness was -0.056 ± 0.075.
With S44Q the abundance fitness was 0.585 ± 0.18.
For S44E, the abundance fitness was 0.274 ± 0.17.
Variant S44K has an abundance fitness of -0.492 ± 0.35.
Work on S44P yielded an abundance fitness of -0.752 ± 0.18.
In the case of D43F, the abundance fitness is reported as -0.047 ± 0.049.
With Y67V the abundance fitness was -0.214 ± 0.11.
For A62I, the abundance fitness was -0.182 ± 0.046.
In the case of A62N, the abundance fitness is reported as 0.111 ± 0.043.
For A62R, the abundance fitness was -0.225 ± 0.053.
P23W gave an abundance fitness of -1.09 ± 0.24.
Work on P23K yielded an abundance fitness of -1.28 ± 0.44.
For P23I, the abundance fitness was -0.869 ± 0.095.
In the case of K32P, the abundance fitness is reported as -0.672 ± 0.16.
K32W showed an abundance fitness of -0.137 ± 0.14.
In the case of K32I, the abundance fitness is reported as -0.145 ± 0.056.
Work on K32L yielded an abundance fitness of -0.175 ± 0.058.
In the case of K32T, the abundance fitness is reported as -0.308 ± 0.073.
E45Y showed an abundance fitness of -0.395 ± 0.062.
E45Q gave an abundance fitness of -0.282 ± 0.13.
For E45M, the abundance fitness was -0.314 ± 0.12.
For E54R, the abundance fitness was -0.74 ± 0.1.
E54P showed an abundance fitness of -0.925 ± 0.16.
